Assay results from paper PMC3991680, “In Vitro Calcite Crystal Morphology Is Modulated by Otoconial Proteins Otolin-1 and Otoconin-90” (PLoS ONE, 2014).

B1: recombinant mouse Otolin-1-Flag (natural protein, UniProt Q4ZJM7 24-482, looked up)
chain: KTTPYTKFTKKSEGKEMLKGLKPSSGFFLDGEETVHTETAAMAEPTTGSPALAMAESTAGPSASATTRLLPFESFSLDTTGFVLNCCHCCSFVTGQKGEPGKMGKQGPKGETGDTGSPGHPGTTGPQGPKGQKGEKGLKGDRGDQGAGGIPGYPGKPGEQGALGPKGDKGTIGPAGTKGQKGSKGELCGNGTKGEKGDPGASGAHGFIGEPGAKGEKGGVGEKGYRGDLGERGEKGQKGEKGMEGEKGSRGDVGSEGKRGSDGLPGLRGDSGPKGEKGEIGSPGFTGPAGPKGELGSKGVRGPTGKKGSRGVKGSKGEATQVPQSAFSALLSKPFPPPNVPIKFDKILSNDQGDYSPVTGKFNCSVPGTYIFSYHVTVRGRPARISLVARNRKQFKSRETLYGQQVDQASLLLILKLSAGDQVWLEVSKDWNGLYVGPEDDSIFSGFLLYPEETFSKSP
notes: Otolin-1, mouse; cDNA amplified by RT-PCR from E16.5 mouse otocysts with primers from the start ATG to the last codon before the stop (FLAG added before the stop codon); secreted protein; The introduction calls rmOtolin-1 histidine tagged, the methods and results Flag tagged; also called rmOtolin-1; Flag tagged recombinant mouse Otolin-1; source: HEK293-T, stably transfected; not shown: FLAG, …
B2: recombinant histidine tagged human Otolin-1 (natural protein, UniProt A6NHN0 24-477, looked up)
chain: KTTPHTKFTKKSEEREMPKGLKPSSGPPPEEEETLFTEMAEMAEPITKPSALDSVFGTATLSPFENFTLDPADFFLNCCDCCSPVPGQKGEPGETGQPGPKGEAGNLGIPGPPGVVGPQGPRGYKGEKGLKGERGDQGVPGYPGKPGAQGEPGPKGDKGNIGLGGVKGQKGSKGDTCGNCTKGEKGDQGAMGSPGLHGGPGAKGEKGEMGEKGEMGDKGCCGDSGERGGKGQKGEGGMKGEKGSKGDSGMEGKSGRNGLPGAKGDPGIKGEKGELGPPGLLGPTGPKGDIGNKGVRGPTGKKGSRGFKGSKGELARVPRSAFSAGLSKPFPPPNIPIKFEKILYNDQGNYSPVTGKFNCSIPGTYVFSYHITVRGRPARISLVAQNKKQFKSRETLYGQEIDQASLLVILKLSAGDQVWLEVSKDWNGVYVSAEDDSIFTGFLLYPEETSGISP
notes: Otolin-1, human; OmicsLink Expression-Ready Clone (pReceiver-M77 plasmid, GeneCopoeia) coding for human Otolin-1 with a C-terminal His tag; secreted protein; also called rhOtolin-1; human Otolin-1-His; source: HEK293-F (Freestyle Max 293), transfected; secreted into medium, purified (HisTrap); not shown: His tag, C-terminal, kept

Legend:
[1] = molecular target: the molecule itself; experiment: rotary shadowing electron microscopy; rmOtolin-1 adsorbed on mica, rapid freezing, freeze-drying, rotary shadowing
[2] = molecular target: the molecule itself; experiment: atomic force microscopy; 150 nM protein in 500 mM KCl deposited on freshly cleaved mica, incubated 48 hrs, in situ imaging in tapping mode

Row | Protein | binding result [1] | binding result [2]
1 | B1 | binds | –
2 | B2 | – | binds
